PMC4568413, “Functional analysis of the sporulation-specific diadenylate cyclase CdaS in Bacillus thuringiensis” (Frontiers in Microbiology, 2015)

Molecular target: the molecule itself
Test: SEC; Superdex 200HR 10/30; about 10 mg/mL CdaS loaded (1 mL); 25 mM Tris-HCl pH 8.0, 150 mM NaCl; 0.5 mL/min; calibrated with Bio-Rad protein standards

B1: CdaS protein from Bacillus thuringiensis BMB171 (enzyme, UniProt D5TM67 1-201, looked up)
chain: MHEWGLSEELKIQTKQMIEIAEKELSIMRNAIDKEDECILCKMEDIHHMLANVQTLAATYYIQAYLSPYTESSSFITTAIQHLSARKHGALIVVERNETLEALIQTGTTLNAHLTAPLLESIFYPGNPLHDGAVLVKNNHIVSAANILPLTKSTEVDPELGTRHRAAIGLSEKSDALILVVSEETGRTSFALNGILYTISL
notes: CdaS (cyclic di-AMP synthase, sporulation-specific; N-terminal YojJ domain and C-terminal DAC domain) of Bacillus thuringiensis BMB171; full length, the truncated constructs end at residue 201; cdaS gene 606 bp; theoretical monomer mass 23.3 kDa; Cloned in NcoI and XhoI sites of pET28b; also called B. thuringiensis CdaS; wild type CdaS; source: E. coli BL21(DE3) harboring pET28b-cdaS, purified …
stoichiometry N: 6
